Results on 9 molecules are retold here after patent US20240417436A1 (BRIGHT PEAK THERAPEUTICS, published 2024).

*1 amine or outer side, *2 acyl side, *3 side chain or, on linkers, in order; H or OH if unused. Bridges are numbered along the chain shown (N, C = ends). Primed or numbered codes have the meaning given here. Side-chain parts run from the residue outwards. [ ]: non-standard residue; d: D form. Ygp″ = O-(PEG8-amino)-tyrosine (O-(8x polyethylene glycol-amino)-tyrosine); Yn3″ = O-(PEG9-azido)-tyrosine (O-(9x polyethylene glycol-azido)-tyrosine); Ygp = O-(8x polyethylene glycol-amino)-tyrosine; Yn3 = O-(9x polyethylene glycol-azido)-tyrosine; PABC = O=C(OCc1ccc(N[*:1])cc1)[*:2]; Ygp(3) = O-(PEG8-amino)-tyrosine; Yn3(3) = O-(PEG9-azido)-tyrosine; Cit = NC(=O)NCCC[C@H](N)C(=O)O; hSer = N[C@@H](CCO)C(=O)O; Nle = CCCC[C@H](N)C(=O)O; Dab = NCC[C@H](N)C(=O)O

Assay [1] deals with T1, IL-2 receptor βγ complex on pan T cells (human, UniProt P14784 27-551; P31785 23-369).
T1 sequence (looked up) 1: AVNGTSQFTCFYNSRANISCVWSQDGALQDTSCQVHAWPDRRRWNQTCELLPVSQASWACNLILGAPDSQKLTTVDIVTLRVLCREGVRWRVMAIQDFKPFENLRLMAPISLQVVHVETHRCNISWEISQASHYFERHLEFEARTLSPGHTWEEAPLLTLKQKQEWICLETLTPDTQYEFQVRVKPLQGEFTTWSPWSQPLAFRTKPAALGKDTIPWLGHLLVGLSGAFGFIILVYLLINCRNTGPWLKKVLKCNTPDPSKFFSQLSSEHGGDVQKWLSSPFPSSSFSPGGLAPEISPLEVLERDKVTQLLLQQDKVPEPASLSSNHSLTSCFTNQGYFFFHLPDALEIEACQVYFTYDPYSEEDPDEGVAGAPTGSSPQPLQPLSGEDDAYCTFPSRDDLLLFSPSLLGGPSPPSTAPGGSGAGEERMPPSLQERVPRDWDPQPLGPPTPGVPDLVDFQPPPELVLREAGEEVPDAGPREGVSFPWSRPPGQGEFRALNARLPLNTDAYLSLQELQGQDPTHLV
T1 sequence (looked up) 2: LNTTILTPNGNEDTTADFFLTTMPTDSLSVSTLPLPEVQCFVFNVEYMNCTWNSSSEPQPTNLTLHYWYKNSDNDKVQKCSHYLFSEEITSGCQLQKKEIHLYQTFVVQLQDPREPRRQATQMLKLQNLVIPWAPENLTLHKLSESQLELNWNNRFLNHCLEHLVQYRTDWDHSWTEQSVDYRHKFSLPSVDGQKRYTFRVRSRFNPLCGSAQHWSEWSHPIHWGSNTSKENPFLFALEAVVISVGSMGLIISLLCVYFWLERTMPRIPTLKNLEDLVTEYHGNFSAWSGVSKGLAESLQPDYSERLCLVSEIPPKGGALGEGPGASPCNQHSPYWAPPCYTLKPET
In words: cell-based or functional assay.

Assay [2] deals with T2, recombinant human IL-2 receptor beta containing a His-tag and Avi-Tag (R&D Systems #AVI10459) (human, UniProt P14784 27-239).
T2 construct: bought protein, held on the Octet SAX2 sensor; also called CD122; IL-2Rβ
T2 sequence (looked up): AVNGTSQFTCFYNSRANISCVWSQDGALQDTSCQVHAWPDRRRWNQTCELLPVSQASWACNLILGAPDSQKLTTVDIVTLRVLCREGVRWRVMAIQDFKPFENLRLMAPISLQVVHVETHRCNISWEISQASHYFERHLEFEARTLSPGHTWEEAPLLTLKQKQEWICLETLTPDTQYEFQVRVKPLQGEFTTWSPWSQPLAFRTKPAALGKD
In words: BLI (Octet), receptor on SAX2 sensor, IL-2 as analyte. On the procedure:
(§1) Bilayer interferometry (BLI) assays were used to measure the binding constants between activatable IL-2 polypeptides (and activated versions thereof) to IL-2 receptor subunits or receptor complexes. BLI assays were conducted on an Octet® R8 instrument. Assay plates were 96 well, polypropylene, F-bottom (chimney well), black microplates (Greiner Bio-one, Cat. No: 655209). The biosensors were Octet® SAX2 (Sartorius, Cat. No: 18-5136). The assay buffer was 1× Kinetic Buffer (Sartorius, Cat. no: 18-5136) or Phosphate Buffered Saline (PBS) that contained 0.02% (v: v) Tween 20 (Polysorbate 20) and 0.1% (w/v) bovine serum albumin (BSA). The sensor was regenerated between measurements in 10 mM glycine pH 2.7 buffer.
(§2) Sensor attached receptors were either recombinant human IL-2 receptor beta containing a His-tag and Avi-Tag™ (R&D Systems™ #AVI10459) or an Avi-Tag™ Fc with human IL-2R beta and IL-2R gamma attached (Acrobiosystems Cat. no: ACRB-ILG-H82F3-25UG). Receptors were reconstituted from lyophilized powder to 500 μg/ml in PBS. Analytes were diluted in Kinetic buffer to 300 nM, then serially diluted to lower concentrations.

For assay [3], the target named is T3, Avi-Tag Fc with human IL-2R beta and IL-2R gamma attached (Acrobiosystems ACRB-ILG-H82F3-25UG) (human, UniProt P14784 27-239; P31785 23-262).
T3 construct: bought heterodimer; also called CD122 CD132; CD122/CD132 complex
T3 sequence (looked up) 1: T2 sequence (looked up)
T3 sequence (looked up) 2: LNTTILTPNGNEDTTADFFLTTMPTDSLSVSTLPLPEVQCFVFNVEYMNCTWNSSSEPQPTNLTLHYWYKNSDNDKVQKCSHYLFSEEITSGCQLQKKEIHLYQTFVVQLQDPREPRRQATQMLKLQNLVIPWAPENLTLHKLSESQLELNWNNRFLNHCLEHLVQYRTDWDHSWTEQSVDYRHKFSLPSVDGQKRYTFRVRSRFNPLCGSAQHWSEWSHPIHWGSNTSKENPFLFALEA
The description is as above. On the procedure:
as §1, §2

Assay [4] deals with T1, IL-2 receptor βγ complex on pan T cells. In words: cell-based or functional assay. The source holds these as a separate data set.
Assay [5] has as its target T2, recombinant human IL-2 receptor beta …. In words: BLI (Octet), receptor on SAX2 sensor, MMP2-treated IL-2 as analyte. How it is done:
as §1, §2

Assay [6] has as its target T3, Avi-Tag Fc with human IL-2R beta and …. The description is as above. How it is done: as §1, §2

B1: CMP-131 (ligand)
chain: APTSSSTKKTQLQLEK([PABC-Cit-Val-Glu-Ac])LLLDLQ[Nle]ILNGINNYKNPKLTR[Nle]L[hSer][Yn3″]KF[Ygp″][Nle]PKKATELKHLQCLEEELKPLEEVL[hSer]LAQSKNFHLRPRDLISNINVIVLELKGSETTF[hSer]CEYADETATIVEFLNRWITFSQSIISTLT
modifications: not fully specified; ends and bridges not checked
Turning to B1, the “Average EC50, pSTAT5 assay in pan T cells, intact molecule” value in assay [1] turned out to be 56.9 nM.

B2: CMP-130 (ligand)
chain: APTSSSTKKTQLQLE[Dab]LLLDLQ[Nle]ILNGINNYKNPKLTR[Nle]L[hSer][Yn3(3)]KF[Ygp(3)][Nle]PKKATELKHLQCLEEELKPLEEVL[hSer]LAQSKNFHLRPRDLISNINVIVLELKGSETTF[hSer]CEYADETATIVEFLNRWITFSQSIISTLT
With B2, the “Average EC50, pSTAT5 assay in pan T cells, intact molecule” value in assay [1] was 66.8 nM.

B3: CMP-319 (ligand)
chain: RGRRVANLVGAPTSSSTKKTQLQLEHLLLDLQEILNGINNYKNPKLTR[Nle]L[hSer][Yn3(3)]KF[Ygp(3)][Nle]PKKATELKHLQCLEEELKPLEEVL[hSer]LAQSKNFHLRPRDLISNINVIVLELKGSETTF[hSer]CEYADETATIVEFLNRWITFSQSIISTLT
modifications: lactam N-33; not fully specified (bridges)
B3: in assay [2], the dissociation constant Kd was determined as 59.5 nM, the koff was found to be 0.0122 s⁻¹ and the kon was 206000 M⁻¹ s⁻¹. Also, in assay [3], the dissociation constant (Kd) amounted to 9.19 nM, the koff amounted to 0.000786 s⁻¹ and the kon amounted to 85500 M⁻¹ s⁻¹.

B4: CMP-168, MMP2 cleaved (ligand)
chain: APTSSSTKKTQLQLEHLLLDLQEILNGINNYKNPKLTR[Nle]L[hSer][Yn3]KF[Ygp][Nle]PKKATELKHLQCLEEELKPLEEVL[hSer]LAQSKNFHLRPRDLISNINVIVLELKGSETTF[hSer]CEYADETATIVEFLNRWITFSQSIISTLT
modifications: disulfide 58-105 (inferred); not fully specified (residues 9, 23); also: cleaved by MMP2, bridge opened, remnants on Lys9 and Glu23 not defined
Take B4: the “Average EC50, pSTAT5 assay in pan T cells, MMP2 cleaved molecule” value (“Average EC50 … MMP2 cleaved molecule” for short) in assay [4] worked out at 6.3 nM. In addition, in assay [5], the dissociation constant Kd came out at 1370 µM, the dissociation rate constant (koff) was 1.08 s⁻¹ and the on-rate (kon) is 789 M⁻¹ s⁻¹. In assay [6], this molecule displayed a Kd of 2.27 nM, a dissociation rate constant (koff) of 0.00164 s⁻¹ and a kon of 602000 M⁻¹ s⁻¹.

B5: CMP-138 (ligand)
chain: APTSSSTKKTQLQLEHLLLDLQ[Nle]ILNGIENYKNPKLTR[Nle]L[hSer][Yn3]KF[Ygp][Nle]PKKATELKHLQCLEEELKPLEEVL[hSer]LAQSKNFHLRPRDLISNINVIVLELKGSETTF[hSer]CEYADETATIVEFLNRWITFSQSIISTLT
modifications: disulfide 58-105; bridge N-29; not fully specified (residue 29, bridges)
With B5, in assay [2], the dissociation constant Kd turned out to be 11.7 nM, the off-rate constant (koff) turned out to be 0.0105 s⁻¹ and the on-rate (kon) amounted to 898000 M⁻¹ s⁻¹. In assay [3], this molecule came in with a Kd of 12.3 nM, a koff of 0.00284 s⁻¹ and a kon of 232000 M⁻¹ s⁻¹.

B6: CMP-136 (ligand)
chain: APTSSSTKKTQLQLEHLLLDLQ[Nle]ILNGIENYKNPKLTR[Nle]L[hSer][Yn3″]KF[Ygp″][Nle]PKKATELKHLQCLEEELKPLEEVL[hSer]LAQSKNFHLRPRDLISNINVIVLELKGSETTF[hSer]CEYADETATIVEFLNRWITFSQSIISTLT
modifications: disulfide 58-105; bridge N-29; not fully specified (residue 29, bridges); also: cleavable peptide sequence not given here
Take B6: in assay [2], the dissociation constant (Kd) turned out to be 8.44 nM, the koff turned out to be 0.00767 s⁻¹ and the association rate constant (kon) turned out to be 909000 M⁻¹ s⁻¹. Besides, in assay [3], binding was characterised by a dissociation constant (Kd) of 12.6 nM, the off-rate constant (koff) was 0.00498 s⁻¹ and the kon was 396000 M⁻¹ s⁻¹.

B7: CMP-165, MMP2 cleaved (ligand)
chain: APTSSSTKKTQLQLEHLLLDLQKILNGINNYKNPKLTR[Nle]L[hSer][Yn3]KF[Ygp][Nle]PKKATELKHLQCLEEELKPLEEVL[hSer]LAQSKNFHLRPRDLISNINVIVLELKGSETTF[hSer]CEYADETATIVEFLNRWITFSQSIISTLT
modifications: disulfide 58-105 (inferred); not fully specified (residue 23, N-terminus); also: MMP2 cleaved, ring opened, cut site not given here, peptide remnants on N-terminus (via glutaryl) and on Lys23 side chain
Turning to B7, the “Average EC50 … MMP2 cleaved molecule” value in assay [4] came to 1.42 nM. In assay [5], the Kd came out at 1.11 µM, the off-rate (koff) worked out at 0.237 s⁻¹ and the on-rate (kon) amounted to 213000 M⁻¹ s⁻¹. In assay [6], this molecule showed a Kd of 1.88 nM, an off-rate constant (koff) of 0.00114 s⁻¹ and an on-rate constant (kon) of 608000 M⁻¹ s⁻¹.

B8: CMP-166, MMP2 cleaved (ligand)
chain: APTSSSTKKTQLQLEHLLLDLQKILNGINNYKNPKLTRXLXYKFYXPKKATELKHLQCLEEELKPLEEVLXLAQSKNFHLRPRDLISNINVIVLELKGSETTFXCEYADETATIVEFLNRWITFSQSIISTLT
modifications: not fully specified; as CMP-166 but cleavable peptide cut by MMP2 (macrocycle opened); cut site not given
As for B8, in assay [4], the “Average EC50 … MMP2 cleaved molecule” value is 4.36 nM. Besides, in assay [5], the Kd was 0.794 µM, the dissociation rate constant (koff) was 0.225 s⁻¹ and the kon was 283000 M⁻¹ s⁻¹. In assay [6], the Kd turned out to be 1.21 nM, the dissociation rate constant (koff) was found to be 0.000684 s⁻¹ and the association rate constant (kon) is 567000 M⁻¹ s⁻¹.

B9: CMP-167, MMP2 cleaved (ligand)
chain: B8 chain
modifications: not fully specified; as CMP-167 but cleavable peptide cut by MMP2 (macrocycle opened); cut site not given
As for B9, the “Average EC50 … MMP2 cleaved molecule” value in assay [4] was 5.31 nM. Besides, in assay [5], the Kd is 0.658 µM, the koff worked out at 0.227 s⁻¹ and the kon was 345000 M⁻¹ s⁻¹. Also, in assay [6], the equilibrium dissociation constant (Kd) was determined as 1.55 nM, the off-rate constant (koff) is 0.000923 s⁻¹ and the kon was determined as 594000 M⁻¹ s⁻¹.
